For the experiment, the target named is human IgE (human) (UniProt P01854). The experiment is described as follows: phage ELISA, solution competition: Fab-phage incubated with serially diluted IgE, unbound phage captured on IgE-coated wells; IC50 used as affinity estimate.
Sequence of human IgE (human) (P01854 other isoform, or with tags, fused parts or gaps): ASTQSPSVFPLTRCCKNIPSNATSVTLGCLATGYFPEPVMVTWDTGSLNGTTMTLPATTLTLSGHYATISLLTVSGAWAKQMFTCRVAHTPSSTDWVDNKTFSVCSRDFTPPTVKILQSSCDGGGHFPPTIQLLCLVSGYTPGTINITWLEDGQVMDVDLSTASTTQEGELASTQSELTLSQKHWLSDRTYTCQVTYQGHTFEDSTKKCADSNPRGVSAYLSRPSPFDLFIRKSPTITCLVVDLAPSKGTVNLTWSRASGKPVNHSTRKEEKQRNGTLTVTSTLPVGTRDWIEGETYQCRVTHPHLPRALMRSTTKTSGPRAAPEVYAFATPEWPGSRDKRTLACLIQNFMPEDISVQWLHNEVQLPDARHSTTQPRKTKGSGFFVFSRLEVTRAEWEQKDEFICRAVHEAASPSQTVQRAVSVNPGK

As a reminder, the IC50 is the midpoint of a concentration-inhibition curve. On to “Mae11-based hypervariable region graft with S34K and W35L in CDR-H1 of the VH domain (Fab displayed on phage)”, for which the IC50 was 4 nM.

The record behind these values is patent publication US20110237779A1.
